Read-outs that look alike come from different tables or passages of the source.
B1: H11-H4 L106F mutant nanobody (VHH)
VHH: QVQLVESGGGLMQAGGSLRLSCAVSGRTFSTAAMGWFRQAPGKEREFVAAIRWSGGSAYYADSVKGRFTISRDKAKNTVYLQMNSLKYEDTAVYYCAQTHYVSYLFSDYATWPYDYWGQGTQVTVSS
B2: H11-H4 L106W mutant nanobody (VHH)
VHH: QVQLVESGGGLMQAGGSLRLSCAVSGRTFSTAAMGWFRQAPGKEREFVAAIRWSGGSAYYADSVKGRFTISRDKAKNTVYLQMNSLKYEDTAVYYCAQTHYVSYLWSDYATWPYDYWGQGTQVTVSS
B3: H11-H4 nanobody, wild type (VHH)
VHH: QVQLVESGGGLMQAGGSLRLSCAVSGRTFSTAAMGWFRQAPGKEREFVAAIRWSGGSAYYADSVKGRFTISRDKAKNTVYLQMNSLKYEDTAVYYCAQTHYVSYLLSDYATWPYDYWGQGTQVTVSS
B4: H11-H4 V102Y mutant nanobody (VHH)
VHH: QVQLVESGGGLMQAGGSLRLSCAVSGRTFSTAAMGWFRQAPGKEREFVAAIRWSGGSAYYADSVKGRFTISRDKAKNTVYLQMNSLKYEDTAVYYCAQTHYYSYLLSDYATWPYDYWGQGTQVTVSS
B5: H11-H4 H100Y mutant nanobody (VHH)
VHH: QVQLVESGGGLMQAGGSLRLSCAVSGRTFSTAAMGWFRQAPGKEREFVAAIRWSGGSAYYADSVKGRFTISRDKAKNTVYLQMNSLKYEDTAVYYCAQTYYVSYLLSDYATWPYDYWGQGTQVTVSS
B6: ab8 nanobody, wild type (VHH)
VHH: EVQLVESGGGLVQPGGSLRLSCAASGFTFDDYAMSWVRQAPGKGLEWIGRMYNNGRTSYNPSLKSLVTISRDNSKNTLYLQMNSLRAEDTATYYCARDNLGYRPSENLYGMDVWGQGTTVTVSS
B7: ab8 E127W mutant nanobody (VHH)
VHH: EVQLVESGGGLVQPGGSLRLSCAASGFTFDDYAMSWVRQAPGKGLEWIGRMYNNGRTSYNPSLKSLVTISRDNSKNTLYLQMNSLRAEDTATYYCARDNLGYRPSWNLYGMDVWGQGTTVTVSS

Key:
Experiment in all cases: BLI
[1] = molecular target: T1, SARS-CoV-2 spike protein receptor binding domain, wild-type (Wuhan type) (SARS-CoV-2, UniProt P0DTC2)
[2] = molecular target: T1, SARS-CoV-2 spike protein receptor …; remark: listed apart in the source
[3] = molecular target: T1, SARS-CoV-2 spike protein receptor …; remark: listed apart in the source
[4] = molecular target: T1, SARS-CoV-2 spike protein receptor …; remark: listed apart in the source

Binder	koff [1]	Kd [2]	koff [3]	Kd [4]
B1	0.149 s⁻¹	164 nM	–	–
B2	0.739 s⁻¹	132 nM	–	–
B3	0.0406 s⁻¹	63.6 nM	–	–
B4	0.543 s⁻¹	180 nM	–	–
B5	0.145 s⁻¹	238 nM	–	–
B6	–	–	0.0291 s⁻¹	51.4 nM
B7	–	–	0.0148 s⁻¹	2.18 nM
